Drawing on the supplement of paper PMC12042874, this text covers amyloid nucleation score for 139 substances.

± gives the uncertainty stated by the source.

The nature of the data set: amyloid nucleation score (Sup35N fusion, yeast selection) (log enrichment); library NNK2; higher = more nucleation; inactive = no reads after selection. The gist of the method: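 Growth for 7 days at 30°C on medium lacking adenine and uracil followed a 24-hour induction with 100 μM copper sulfate of psi-negative yeast expressing peptides of 20 random codons fused to Sup35N. Input and output plasmid inserts were sequenced with Illumina, and sequences with under 100 input reads were excluded. Nucleation score is the DiMSum log enrichment of output over input reads, centred on the mode score of non-aggregating sequences.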
As for ENGIICR, the amyloid nucleation score stood at 0.088 ± 0.49. As to LRLGHVIPGVKNCREEND, the amyloid nucleation score was -0.745 ± 0.3. Under INFMAVDDKPRVVVEPCPSA stands 0.623 ± 0.62; under VYVIFPPLSTSLPVSMSYNL, -0.548 ± 1.1. Under GLSRFA stands -0.582 ± 1.1; under VLEDNALVRYKDRGSSGWTV, 3.15 ± 0.059. Under SVYVCVKWESVSVLVLY stands 1.86 ± 0.12; under VFGSYCGSVPRAAKFAMT, “inactive”; under SFKICKLMNSNRFFVGICCT, 0.057 ± 1.1. In the case of YGHFWDFGVPIASSISYKKG, the amyloid nucleation score was -0.029 ± 0.79. Under LNNYRDGLSY stands 4.1 ± 0.064. Under YYSFPISIGWVSNCMFVWEV stands 6.53 ± 0.073; under VLLSGLY, “inactive”; under GKSYVYIRLGIFSMWASHRR, 2.72 ± 0.08. Under YRCSDLYK stands 2.47 ± 0.29; under CAVVRGLTVKAVL, -0.64 ± 0.76. Regarding KTSWFGYSWNDHHSIRHQCS, the amyloid nucleation score amounted to 0.84 ± 0.43. Under LYVYMCIPLDYLSSRVDSKR stands 5.67 ± 0.094; under TTFILNMMLYNSCTYVYMSL, 8.549 ± 0.073; under TVFDRNMDTGIMCIVMSWDN, -0.318 ± 0.48. Under CMLEIVLLEDFQG stands -0.632 ± 0.32.

Regarding PAYRYKHSNWKNPRQ, the amyloid nucleation score result was “inactive”. Under TGCNFHGRRFRCGYNGLGNP stands -0.59 ± 0.37; under AFPLRTVISGN, 0.484 ± 0.8. Under VRGAVSLL stands -0.64 ± 0.29. In the case of YDVRLFKLTTTSFAIVLSEW, the amyloid nucleation score was determined as 0.823 ± 0.21.

On to IFFFWVLMRYW, for which the amyloid nucleation score was -0.689 ± 0.55. Substance KCCILMLKA gave an amyloid nucleation score of 0.745 ± 0.49.

As to VNLMVYASVIIGCAVARS, the amyloid nucleation score was 7.06 ± 0.045. Under NYILSMLCKMNARCLVTWRI stands 0.712 ± 0.4; under FMYHSYSGRPNNHAIGKHFR, -0.405 ± 0.49. Turning to QRGRGERMFITQCLVDRMCF, the amyloid nucleation score is -0.117 ± 0.31. Under VCFML stands 0.94 ± 0.52; under SIVNFWNMIVE, 3.32 ± 0.15; under CWVRLIVGMTCYAFKGGSVV, 0.426 ± 0.43. Consider DICAIIVHWCDDLNVAYWYL, for which the amyloid nucleation score was determined as 0.058 ± 1. On to LRQRY, for which the amyloid nucleation score is -0.233 ± 0.64. Under EGWTWGGRLNKAQILTECVL stands 1.49 ± 0.38. As for STKSSVAVGSDSWNRSHRQV, the amyloid nucleation score was found to be 0.773 ± 0.22. Consider YMDNCSYRYSVTESTRNTAG, for which the amyloid nucleation score stood at 0.17 ± 0.74. Take WFGYIYFHTTYSFFGHPAAT: the amyloid nucleation score was -1.5 ± 1.1.

In turn, MEDHF displayed an amyloid nucleation score of 3.69 ± 0.11.

The substance FRCLTSSANISISTVWYVGH yielded an amyloid nucleation score of 4.61 ± 0.09.

As to GTFQSYHDTPEECSFRGKSV, the amyloid nucleation score was -0.114 ± 1.1. Substance RMVKLDDNVKYYVKSVEGYE had an amyloid nucleation score of 0.276 ± 0.6.

With VVSPRVTGNME, the amyloid nucleation score stood at 0.302 ± 0.23. Under FDYVMFSDIVWSYTKNDALM stands -0.111 ± 0.63. In the case of PLILGGGLLWIVC, the amyloid nucleation score is 0.201 ± 0.74.

Turning to SPFFVMLIITFTRMVEDLRM, the amyloid nucleation score was -0.683 ± 1.1. The substance NVPLFRSVSGDPVHHPLI gave an amyloid nucleation score of 2.41 ± 0.15. Under VRLEPSHRVCRRVRLTSILR stands “inactive”; under IFGSLLNMIYMV, 2.5 ± 0.21; under MSLVSRNSTSKHLNIVFSLI, 5.057 ± 0.045. As for DLKYLGLA, the amyloid nucleation score is -0.535 ± 0.53.

MTYRSLPEYTDLLWVTYVER gave an amyloid nucleation score of 0.369 ± 0.46.

Substance NVVSLIIQRKLRPAPVGSFR returned an amyloid nucleation score of 0.218 ± 1.1. Under MYSYFSRSMTHTNNGLSSLA stands 4.38 ± 0.045; under HMDHARLEVLTVILLGVWGF, 5.11 ± 0.089; under LCFYPVTTCKPIFRPLYVLP, 0.562 ± 0.45. FDQTFEDWWPAYNHSRFNQH: the amyloid nucleation score turned out to be 0.352 ± 0.51. Consider PNRIFFTLFCLTKYIIPMFM, for which the amyloid nucleation score was -1.33 ± 0.75. RGRCFWLEFTFISWLSNDVA: the amyloid nucleation score entry is “inactive”.

For the substance TYGWSLFERKLNPRGCWFPN, the amyloid nucleation score was -0.082 ± 0.63. Under DLVMVSVSADVHSSNS stands 0.163 ± 0.5; under FAVFPLVPGRGPGLFENNRW, -0.104 ± 0.74. Under CKSEYIWYPKFAMGSFDPSQ stands “inactive”.

The substance HCLVIFNEIYRL registered an amyloid nucleation score of 7.137 ± 0.071. Under MFFNLAI stands “inactive”; under FYVVALGYKIVLCTMFYMLE, -1.16 ± 0.31; under MSTMINSPPSSG, “inactive”. Under FILSQWYKGSECTTCRRLWG stands -0.318 ± 0.4; under YVCLFEFVMVCCDFTLFCKV, 0.585 ± 0.8. Under NFCPLPLVRCIECLRTMDGV stands “inactive”; under RTWCDGGCPV, 0.653 ± 0.81.

QSAVICVGRCGNCHPPTEL came in with an amyloid nucleation score of 2.87 ± 0.1.

GTRYSLCTRCG displayed an amyloid nucleation score of 0.766 ± 0.5. Under KVYINHGFGNFEVCSRWVFE stands -0.055 ± 1.1. With AGWRLVTQDRLSLLNQTDVF, the amyloid nucleation score is 1.05 ± 0.36. Substance KVRLGTLTYICYANSNRLCP returned an amyloid nucleation score of 2.37 ± 0.12. Under KLQLVTLW stands 3.66 ± 0.072; under HLLLEKDPSVWLWPKNRPGS, 3.35 ± 0.088.

As to CTMLLGSESEGWSLQIFVLL, the amyloid nucleation score stood at 0.05 ± 0.62. On to VGNIGSSTC, for which the amyloid nucleation score was -0.159 ± 0.45. Under LFFTKGKLFNEAI stands “inactive”. Under NPLYEARKRNRLYTFGATRF stands 3.65 ± 0.084; under ITLASDFACLFGVIDYSWIV, 0.143 ± 0.49. With VAWVYSVLKCVSGLVG, the amyloid nucleation score was -0.013 ± 0.4.

Consider DVLCS, for which the amyloid nucleation score was determined as 0.626 ± 0.57. Consider RHLVIYRLVNCKSARLSRTL, for which the amyloid nucleation score result was “inactive”. Under RIMIIGKYVSRMVFGDSFWG stands 6.002 ± 0.049; under MLLPLNYECGVQYS, -0.179 ± 0.37; under SSATFYT, 1.43 ± 0.26. As to MLLRHNEPVLLRAHYYRESA, the amyloid nucleation score is -0.13 ± 0.76. Under FVSHYHTAHTVEMASSQLTN stands 0.503 ± 0.38. Under NRSGEYRPLMMCVLGPLSTD stands 0.687 ± 0.24; under NMTKRWMVCYHFFFKNYDLT, 0.207 ± 0.8; under KNIVVTSPVLMNST, -0.179 ± 0.63. Under CNFYCPRDPQSSIVSYTMSY stands -0.159 ± 1; under TNKKVVRYPSPLPERSYGMR, 0.012 ± 0.74.

As to ALPVLIINERTRWGVTLLLP, the amyloid nucleation score was determined as 0.421 ± 0.39. As to HQMQACLVLG, the amyloid nucleation score stood at 5.736 ± 0.053. Under YFNRIYYTDIYNMVALVICF stands 4.4 ± 0.12; under YDLSLVWWSTMFFRLCSLGC, -0.601 ± 0.41; under FNMDGYGRTGVRPFCRYVLN, 0.333 ± 0.61. For the substance STEERRWNN, the amyloid nucleation score is -0.217 ± 0.79. NRICYRLGCLRADNDNDLSG: the amyloid nucleation score is -0.234 ± 0.26.

With WINLSRFFSLGKFRIAIRYY, the amyloid nucleation score is -1.04 ± 1.1. Under VFIFLGLPLFPMITSIDLGY stands 2.28 ± 0.13; under TNDASYSIDLWW, -0.304 ± 0.18; under ASGCLNLVCQNVCTSRSTNV, 8.954 ± 0.067. Under TSCSTTAALEVNIRMTDVGV stands 1.59 ± 0.14. Under SFGENLVYCMRSIVTSPYRL stands -0.364 ± 0.24. Take KALQNSDGVGTRNLQTRHGY: the amyloid nucleation score was found to be 1.75 ± 0.29.

For the substance RRMMRP, the amyloid nucleation score worked out at 2.2 ± 0.4. Under SRYSFYLRFHVLSVMAVQML stands 0.688 ± 0.81.

DVDFRSMCEGTFSLNDQPNR: the amyloid nucleation score was -0.825 ± 0.78. Under AVLLPNWSAYSGKNTSYVPV stands 2.13 ± 0.1; under CSSWRAYWNSGLQFLVIFGV, -0.737 ± 0.32; under LGNRLSKIAVGTSFKLFKK, 0.138 ± 1.1.

As for YFSDLDAL, the amyloid nucleation score entry was “inactive”. Under REWWYKKALPQCENTIGVGQ stands 0.721 ± 0.47; under SWMRFVKKIRQDAVRAVLIG, 1.36 ± 0.4. With DKLLMVSIFFSDSMTSLS, the amyloid nucleation score result is “inactive”. Under MSKGVYIYNIYYLVMSGVPL stands 4.9 ± 0.063; under SVYENYRVTISLSRSSITSC, -1.1 ± 0.61; under IKCFAMGETFLAKVVHCTCW, 4.04 ± 0.065. Under KYVVVYDSVYGFSVSGFSLW stands 0.777 ± 0.19; under SDSKG, 0.113 ± 1.1.

As to SDLLFVLASLSCLQWNKDIA, the amyloid nucleation score was -0.457 ± 0.25.

On to CAPYTVLGYGLGTQFHAGEN, for which the amyloid nucleation score is 1.8 ± 0.1. Under AYYALCL stands -0.92 ± 1.1. On to NAYFMLEILRTKWTQDSTER, for which the amyloid nucleation score is -0.99 ± 0.78. Under VYYLVCGL stands 0.147 ± 0.38; under NHVARMFLKQRFFSNMS, “inactive”. Substance SLSNVLINCVLVFCW returned an amyloid nucleation score of 6.53 ± 0.076. Under VIKGIEGVHGEKHVVYKVIC stands 4.19 ± 0.065; under SSYGFINYMTS, “inactive”; under QYRFFVYKLRRQIIYV, -0.191 ± 1.1. For PMMSIAMCVSSTPLRYFRVR, the amyloid nucleation score worked out at 2 ± 0.12.
